Measurements published in patent publication US5807824A, “C5A receptor antagonists having substantially no agonist activity” (priority 1995, dated 1998).
Where a chain is given by its changes, count along the chain named. Names and notes keep the numbering of the source. Where a SMILES comes first, the peptide text is derived from it.

Legend:
[1] = target: T1, C5a receptor (Homo sapiens, UniProt P21730); assay: C5a induced Ca++ rise assay in fura-2 loaded neutrophils; format: cell-based; conditions: for IC50 / EC50: Table 6, Example 10 comparison with decapeptide; for Concentration up to which tested with agonist activity not detected: calcium rise assay
T1 construct: Neutrophils were purified from human peripheral blood; endogenous in cells; host or cells: neutrophils from human peripheral blood
T1 sequence (P21730 1-350): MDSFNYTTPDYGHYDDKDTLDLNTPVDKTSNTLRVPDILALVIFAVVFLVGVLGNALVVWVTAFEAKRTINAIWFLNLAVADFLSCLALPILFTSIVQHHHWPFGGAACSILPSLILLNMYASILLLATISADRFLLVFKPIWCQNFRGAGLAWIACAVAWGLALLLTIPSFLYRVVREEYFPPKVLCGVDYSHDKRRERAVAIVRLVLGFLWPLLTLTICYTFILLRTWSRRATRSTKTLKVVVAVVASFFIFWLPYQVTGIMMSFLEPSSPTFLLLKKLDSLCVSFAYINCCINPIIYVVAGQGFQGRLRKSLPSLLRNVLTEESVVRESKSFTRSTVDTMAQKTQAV
Source text: The antagonism of the instant C5a analogues may be quantified as an IC50 in the calcium rise assay disclosed in Seligmann et al., Agents and Actions 21:375-378 (1987), described in detail in Example 7.
See Hugli et al., CRC Crit. Rev. Immunol. 1:321-326 (1981) and PCT WO 92/10205. A quantitative measure of this property may also be obtained using the calcium rise assay disclosed in Seligmann et al., supra, also described in Example 7. EC50 is a measure of agonistic activity.
Recombinant human C5a was dissolved in Hanks buffer containing 0.01% Tween-20, and all stock dilutions of C5a were made in this buffer. The acetoxymethyl ester of fura-2 (fura 2AM, Molecular Probes) was dissolved in DMSO. Neutrophils were purified from human peripheral blood by sedimentation in 6% hetastarch (HESPAN, DuPont, Waukegan, Ill., followed by counter flow elutriation as described in Chapman-Kirkland et al., J. Immunol. Meth. 142:95-104 (1991). Purified cells (2×10^6/ ml) were mixed with 0.2 uM fura- 2AM and incubated for 30 min at 37° C. in HEPES buffered Hanks solution without calcium or magnesium. Fifteen minutes before the assay, the cell suspension was transferred to a curvette containing a stir bar and calcium was added to 1 mM. The cell suspension was incubated with stirring at 37° C. Assays were terminated within 5 h of cell purification and a standard control response was obtained periodically to insure that the cell responses were not changing over the time of the experiment. The amount of fluorescence was determined using an SLM 8000 spectrofluorometer (SLM-Aminco Instruments, Urbana, Ill.). Curvettes were placed in the fluorometer and after obtaining a baseline for 10 sec, the C5a receptor antagonists to be tested for antagonistic properties were added and any change in fluoresence excitation ratio of 340 nm/380 nm (emission of 510 nm) was measured. Forty seconds after analogue addition, a challenge dose of C5a was added to a final concentration of 100 pM and the resulting change in excitation ratio was measured.
IC50 values were used as a measure of antagonist potency. These values are defined as the concentration of C5a analogue needed to reduce the calcium rise response of the 100 pM C5a challenge dose by 50%. EC50 values were used as a measure of agonist potency. […]

[2] = target: T1, C5a receptor; assay: Receptor binding assay: displacement of [125I]Bolton-Hunter labelled C5a from PMNL membranes
Experimental: C5a and C5a receptor antagonists were tested for their affinity for the C5a receptor. […] PMNLs were resuspended in Hanks balanced salt solution, without Ca^++ and Mg^++ and which contained 10 mM HEPES at pH 7.3, 2.5 mM MgCl2, 100 units/ml DNAse I, 0.1 mM PMSF, 10 μg/ml aprotonin and 10 μg/ml leupeptin. They were then equilibrated at 400 psi for 20 min at 4° C. in a nitrogen cavitation bomb. After evacuation into 3 volumes 0.5M KHCO3 containing 25 mM EDTA and the protease inhibitors listed above, the gelatinous material was removed with forceps and the mixture was centrifuged at 400×g for 10 min at 4° C. The resulting supernatant was centrifuged at 50,000×g for 60 min at 4° C. The pellets from the aliquots representing 200×10^6 cells were stored at -70° C. For binding studies, these membranes were resuspended at an equivalent of 20×10^6 cells/ml in 50 mM HEPES at pH 7.3, containing 1 mM CaCl2, 5 mM MgCl2, 0.1 mM PMSF, 0.1% bacitracin and 0.5% BSA.
Nonspecific binding was determined in the presence of 10 nM unlabelled C5a. The binding reaction was initiated by the addition of the PMNL membranes and was continued for 120 min at 4° C. Bound and free radioactivity were separated by vacuum filtration through GF/C glass fiber filters (Whatman), pretreated for 90 min with 0.05% PEI (polyethyleneimine) using a Cell Harvester (Brandel, Gaithersburg, Md.). Filters were washed with 3×5 ml of ice-cold 5 mM Tris buffer at pH 7.4 and counted in a multiwell Gamma counter (Genesys). Data were analyzed using the non-linear regression analysis program, RS/1 (Bolt, Beranek and Newman, Boston) and expressed as IC50 values. The results are set forth below in Table 4 as Ki values using the Cheng-Presoff equation. See Braunwalder et al., supra.

[3] = Table 6, Example 10 comparison with decapeptide
[4] = Table 4, [125I]BH-C5a 4.0 pM, PMNL membranes, Cheng-Prusoff

For CC[C@H](C)[C@H](N)C(=O)N[C@@H](CO)C(=O)N[C@@H](Cc1ccccc1)C(=O)N[C@@H](CCCCN)C(=O)N[C@@H](CC(=O)O)C(=O)N[C@@H](CCSC)C(=O)N[C@@H](CCC(N)=O)C(=O)N[C@@H](CC(C)C)C(=O)NCC(=O)N[C@@H](CCCNC(=N)N)C(=O)O [Decapeptide, reference compound] (H-ISFKDMQLGR-OH), which “Agonist / antagonist character” value ([1]; stated in words) is on record?
The value was “significant agonist activity”.

B1: C5a (1-68, T1M, C27S, K68C) (protein, UniProt P01031 678-745, looked up, variant T1M C27S K68C)
chain: MLQKKIEEIAAKYKHSVVKKCCYDGASVNNDETCEQRAARISLGPRCIKAFTECCVVASQLRANISHC
modifications: C5a anaphylatoxin
Which Ki [2, 3] does the source give for B1 here?
Its Ki is 0.06 nM.

What about the IC50 [1] of the same molecule?
The IC50 was 84 nM.

B2: 8 Cys: cysteine-adduct of the C5a analogue No. 8 (protein, UniProt P01031 678-751, looked up, variant T1M C27S Q71C)
C5a anaphylatoxin: MLQKKIEEIAAKYKHSVVKKCCYDGASVNNDETCEQRAARISLGPRCIKAFTECCVVASQLRANISHKDMCLGR
modifications: C5a anaphylatoxin cysteine adduct
How did the Ki [2, 4] turn out when B2 was run?
Its Ki is 2.8 nM.

B3: C5a (1-71, T1M, C27S, Q71S) (protein, UniProt P01031 678-751, looked up, variant T1M C27S Q71S)
C5a anaphylatoxin: B2 C5a anaphylatoxin with C71S
modifications: C5a anaphylatoxin
notes: agonist, included for comparison
B3 was tested. Which Ki [2, 4] did it give?
Its Ki is 7.5 nM.

B4: C5a (1-71, T1M, C275, Q71D) (protein, UniProt P01031 678-751, looked up, variant T1M C27S Q71D)
C5a anaphylatoxin: B2 C5a anaphylatoxin with C71D
modifications: C5a anaphylatoxin
notes: as for B3
With B4 as the molecule, how does the Ki [2, 4] read?
The Ki was 8.5 nM.

B5: C5a (1-71, T1M, C27S, Q71R) (protein, UniProt P01031 678-751, looked up, variant T1M C27S Q71R)
C5a anaphylatoxin: B2 C5a anaphylatoxin with C71R
modifications: C5a anaphylatoxin truncated to residues 1-71
notes: as for B3
For B5, which Ki [2, 4] is on record?
The Ki was 0.35 nM.

B6: C5a (1-73, T1M, C27S, G73C) (protein, UniProt P01031 678-751, looked up, variant T1M C27S G73C)
C5a anaphylatoxin: B2 C5a anaphylatoxin with C71Q, G73C
modifications: C5a anaphylatoxin truncated to residues 1-73
notes: as for B3
With B6 as the molecule, how does the Ki [2, 3] read?
Its Ki is 0.03 nM.

And the EC50 [1]?
Its EC50 is 0.6 nM.

B7: C5a: human C5a, a 74-amino acid polypeptide; recombinant human C5a used as reference agonist (protein, UniProt P01031 678-751, looked up)
C5a anaphylatoxin: B2 C5a anaphylatoxin with M1T, S27C, C71Q
modifications: C5a anaphylatoxin
Which EC50 [1] does the source give for B7 here?
The EC50 was 0.07 nM.

B8: C5a (1-71, T1M, C27S, H67F, Q71C) (protein, UniProt P01031 678-751, looked up, variant T1M C27S H67F Q71C)
C5a anaphylatoxin: B2 C5a anaphylatoxin with H67F
modifications: C5a anaphylatoxin truncated to residues 1-71
With B8 as the molecule, how does the Ki [2, 4] read?
Its Ki is 0.1 nM.

And the “Concentration up to which tested with agonist activity not detected” value [1]?
The value was > 0.8 µM.

B9: C5a (1-71, T1M, C27S) (protein, UniProt P01031 678-751, looked up, variant T1M C27S)
C5a anaphylatoxin: B2 C5a anaphylatoxin with C71Q
modifications: C5a anaphylatoxin
notes: as for B3
B9 was tested. Which Ki [2, 4] did it give?
The Ki was 3 nM.

B10: C5a (1-72, T1M, C27S, L72C) (protein, UniProt P01031 678-751, looked up, variant T1M C27S L72C)
C5a anaphylatoxin: B2 C5a anaphylatoxin with C71Q, L72C
modifications: C5a anaphylatoxin truncated to residues 1-72
What does the source list for B10?
Ki [2, 4]: 0.9 nM; Ki [2, 3]: 0.15 nM; IC50 [1]: 621 nM; Concentration up to which tested with agonist activity not detected [1]: > 1.5 µM

B11: C5a (1-71, T1M, C275, Q71H) (protein, UniProt P01031 678-751, looked up, variant T1M C27S Q71H)
C5a anaphylatoxin: B2 C5a anaphylatoxin with C71H
modifications: C5a anaphylatoxin
notes: as for B3
Which Ki [2, 4] does the source give for B11 here?
Its Ki is 0.15 nM.

B12: C5a (1-71, T1M, C275, Q71L) (protein, UniProt P01031 678-751, looked up, variant T1M C27S Q71L)
C5a anaphylatoxin: B2 C5a anaphylatoxin with C71L
modifications: C5a anaphylatoxin
notes: as for B3
Which Ki [2, 4] does the source give for B12 here?
The Ki was 0.035 nM.

B13: C5a (1-70, T1M, C275, M7OC) (protein, UniProt P01031 678-747, looked up, variant T1M C27S M70C)
chain: MLQKKIEEIAAKYKHSVVKKCCYDGASVNNDETCEQRAARISLGPRCIKAFTECCVVASQLRANISHKDC
modifications: C5a anaphylatoxin
Which results are given for B13?
Ki [2, 4]: 0.4 nM; Ki [2, 3]: 0.35 nM; IC50 [1]: 859 nM; Concentration up to which tested with agonist activity not detected [1]: > 1 µM
